The source of these data is PMC4754655 (Scientific Reports, 2016).

Substitutions are numbered along the chain they refer to.

Holding throughout (conditions): both partners purified
In one experiment the target is T1, YU2 gp140-foldon trimer (HIV-1 isolate YU2 (clade B), UniProt P35961, stabilised).
T1 construct: also called eliciting gp140-F immunogen; gp140 trimers; source: 293 F cells; not shown: His tag, C-terminal, kept
The experiment can be described thus: ELISA; Env glycoprotein coated at 2 ug/ml in PBS pH 7.4 overnight at 4 C; IgG 5-fold serially diluted, 1 hour at RT; HRP goat anti-human IgG (H+L).

Experiment [1] addresses T2, YU2 gp120, soluble monomer (HIV-1 isolate YU2 (clade B), UniProt P35961). The experiment is described as above.
In another experiment the target is T3, JRFL gp140-F trimer (HIV-1 isolate JRFL (clade B), UniProt Q75760, stabilised).
T3 construct: also called JRFL foldon trimers; source: 293 F cells
The experiment is described as above.

Experiment [2] has as its target T2, YU2 gp120, soluble monomer. The experiment can be described thus: BLI.

B1: GEBT391, mature IgG (antibody, V domains shown)
VH: QVQLVESGGGLVQPGGSLRLSCAASGFTFSSYGMHWVRQAPGKGLEWVAVIWFDGSEKYYVDSVKDRFTISRDNSKNMLYLQMNNLKLDDTAVYYCARRGCTGSGCYLYYYALDSWGQGVVVTVSS
VL: DIQMTQSPSSLSASVGDTVTITCRASQGISSYLNWFQQKPGKAPKLLIYAATTLQSGVPSRFSGSGSGTDFTLTISSLQPEDFATYYCLQHNFYPYSFGQGTKVEIK
Consider B1, for which the binding result (with YU2 gp140-foldon trimer; in experiment [1]; with JRFL gp140-F trimer) was “binds” throughout.

B2: GEBT391, inferred germline (igL) reverted IgG (antibody, V domains shown)
VH: B1 VH with Q1E, F53Y, E57K, V61A, D89E
VL: B1 VL with T52S, T53S, Q55E, D70E
notes: also called igL GEBT391; gL-reverted GEBT391
Regarding B2, the binding result (in experiment [2]; with YU2 gp140-foldon trimer; with JRFL gp140-F trimer) was “binds” in each case.

B3: GEBT412, mature IgG (antibody, V domains shown)
VH: B1 VH with S21A, T28I, S31N, Y32H, F53Y, V61A, D89V, A112G
VL: B1 VL with Y32H
Turning to B3, the binding result (in the experiment with YU2 gp140-foldon trimer; in experiment [1]; with JRFL gp140-F trimer) was “binds” in each case.

B4: GEBT412, inferred germline (igL) reverted IgG (antibody, V domains shown)
VH: B1 VH with F53Y, E57K, V61A, D89E, A112G
VL: B1 VL with T52S, T53S, Q55E, D70E
notes: also called igL GEBT412
For the molecule B4, the binding result (in experiment [2]; in the experiment with JRFL gp140-F trimer) was “binds” in each case.

B5: GEBT403, mature IgG (antibody, V domains shown)
VH: EVQLVQSGAEVKKPGSSVKVSCKASGYTFTDYYMHWVRQAPGQGLEWMGEINPKTGGTNYAQKFQGRVTMTRDTSTSTAYMELSSLRSEDTAIYSCARGGQRLIPLRRFYFYYWGQGVLVTVSS
VL: QSVLTQPPSVSGAPGQKVTISCTGSSSNIGGYDVHWYQQLPGMAPKLLIYDNNERPSGISDRFSGSKSGTSASLAITGLQTEDEADYYCQSYDSSMNAWVFGGGTRLTVL
notes: also called mature GEBT403
Turning to B5, the binding result (with YU2 gp140-foldon trimer; in experiment [1]; in the experiment with JRFL gp140-F trimer) was “binds” throughout.

B6: GEBT383, mature IgG (antibody, V domains shown)
VH: QVQLQESGPAVVKPSETLSLTCAVSGGSISSSNWWSWIRQSPGKGLEWIGGVYGSSGSTEYNPSLKSRVTISIDTSKNQFSLKLSSVTAADTAVYYCVRHCTWYNNIWNGYYNGFDYWGQGVLVTVSS
VL: QSALTQPPSVSGAPGQRVTISCTGSSSNIGGYYVSWYQQLPGTVPKLLIYENKKRPSGVSDRFSGSKSGTSASLTITGLQPGDEADYYCSAWDNSLSSHVFGSGTKLTVL
notes: also called non-CD4bs-directed mAb
Turning to B6, the binding result with YU2 gp140-foldon trimer is reported as “binds”.

B7: GEBT414, mature IgG (antibody, V domains shown)
VH: EVQLVQSGAEVKRPGESLRISCKTSGYSFTGSWISWVRQMPGKGLDWMGNIYPGDSDTRYNPSFQGHVTISADKSISTTYLQWSSLKASDTATYYCAKGGGITIFGLLHYPLDSWGQGVVVTVSS
VL: DIQMTQSPSSLSASVGDTVTITCRASQGINNWLAWYQQKPGKAPKLLIYKASSLQSGVPSRFSGSGSGTDFTLTISSLQSEDFATYYCQQYNSGPLTFGGGTKVEIK
Take B7: the binding result (in the experiment with YU2 gp140-foldon trimer; in experiment [1]; with JRFL gp140-F trimer) was “binds” each time.

B8: GEBT404, mature IgG (antibody, V domains shown)
VH: EVQLVESGGGLAKPGGSLRLSCAASGFTFSNYWMYWVRQAPGKGLEWISAINSAGSRTYYPDSVKGRFTISRENAKNTLYLQMDSLRAEDTAVYYCAKGRIAIFGLVITYFDYWGQGVLVTVSS
VL: DIQMTQSPSSLSASVGDRVTITCRASQGITNDLAWYQQKPGETPKLLIYDASSLQSGIPSRFSGSGSGTDFTLTISSLQPEDFATYYCQHYYSTPPTFGGGTKVEIK
As for B8, the binding result (in the experiment with YU2 gp140-foldon trimer; in experiment [1]; in the experiment with JRFL gp140-F trimer) was “binds” each time.

B9: GEBT404, inferred germline (igL) reverted IgG (antibody, V domains shown)
VH: B8 VH with Y35H, R57S, P61A, S85G
VL: B8 VL with R24Q, D50E, P80S
notes: also called igL GEBT404; gL-reverted GEBT404
As for B9, the binding result in the experiment with JRFL gp140-F trimer is listed as “binds”.
